From US9591845B2, “Method for treating blood, blood products and organs” (FORSCHUNGSZENTRUM JUELICH GMBH, priority 2012, dated 2017)
Non-standard residues stand in square brackets, D forms with d. No end group written: not given here.

Molecular target: A-beta peptide (1-42) (Homo sapiens, UniProt P05067)
Assay: ThT seeding assay
Format: biochemical
Details: for seeding effect of preformed Abeta-inhibitor coaggregates (ability to increase the rate of the aggregation of fresh Abeta / shorten the lag phase): coaggregates formed with 20 μM inhibitor, 7 days at 37° C., 10 mM NaPi pH 7.4, mixed 20:80 with fresh Aβ 20 μM, 10 μM ThT, fluorescence over 20 h

Chain of A-beta peptide (1-42) (P05067 672-713): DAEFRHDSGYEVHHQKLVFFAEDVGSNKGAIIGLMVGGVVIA

Substance	seeding effect of preformed Abeta-inhibitor coaggregates (ability to increase the rate of the aggregation of fresh Abeta / shorten the lag phase)	formation of ThT-positive Abeta aggregates in the later phase (inhibitor-Abeta coaggregates added to fresh Aβ 20 μM, ThT fluorescence over 20 h)
rpitrlhtnrnr [DB1]	no seeding effect	–
rpitrlqtheqr ([dR][dP][dI][dT][dR][dL][dQ][dT][dH][dE][dQ][dR]) [DB5]	no seeding effect	–
rpitrlrthqnr ([dR][dP][dI][dT][dR][dL][dR][dT][dH][dQ][dN][dR]) [DB3]	no seeding effect	–
rpittlqthqnr ([dR][dP][dI][dT][dT][dL][dQ][dT][dH][dQ][dN][dR]) [DB2]	no seeding effect	–
rprtrlhthrnr ([dR][dP][dR][dT][dR][dL][dH][dT][dH][dR][dN][dR]) [D3]	no seeding effect	–
rprtrlrthqnr ([dR][dP][dR][dT][dR][dL][dR][dT][dH][dQ][dN][dR]) [DB4]	no seeding effect	appear to reduce the formation of ThT-positive Abeta aggregates in the later phase
